Laboratory results published in patent US20210220450A1, “TREATMENT OF AN IOP CONDITION” (The Research Foundation for The State University of New York, priority 2013, published 2021).

Tests used:
MMP-2, MMP-9, MMP-13 [1] = assay: MMP expression in PA treated HTM cells (Examples 17, 18); format: cell-based
C57BL/6J mice = assay: Outflow facility in TA and protein treated C57BL/6J mouse eyes (Example 13); format: in vivo; conditions: TA five days before intravitreal protein (2 μl, 5 μg/μl); two days after injection
Description: C57BL/6J mice were divided into two groups:
1) Animals receiving bilateral steroid (TA) injection subconjunctivally five days prior to protein injection (FIG. 10b) and 2) Animals not receiving subconjunctival steroids (FIG. 10c).
(§1) 1) Animals that received unilateral intravitreal injection with 2 μl of tPA (5 μg/μl, Actilyse; Boehringer Ingelheim, Ingelheim am Rhein, Germany) while the contralateral eye received 2 μl of BSA (5 μg/μl; Gold Biotechnology, St Louis, Mo., USA), and 2) Animals that received unilateral intravitreal injections with 2 μl of non-enzymatically active tPA (NE-tPA/S478A-tPA) (5 μg/μl; Innovative Research, Novi, Mich., USA) while the contralateral eye received 2 μl of BSA. Animals were euthanized two days after intravitreal injection.
(§2) Outflow facility determination: Mouse eyes were enucleated immediately after euthanasia. Outflow facility was determined using a constant pressure method, as previously described. Pressure was raised in steps of 4 cmH2O, from 8 cmH2O (5.88 mmHg) to 32 cmH2O (23.54 mmHg) by increasing the height of a column of fluid of BSS. […] Flow was constantly measured via a microfluidic flow sensor (0.07-1.5 uL/min, MFS1; Elveflow, Paris, France). […] Any eyes that developed visible leaks during outflow facility determination, or that had pressure-flow correlations with R^2<0.9, were excluded from analysis but were used for RNA quantification.

Mmp-2, Mmp-9, Mmp-13 [2] = assay: Mmp expression in TA and protein treated C57BL/6J eyes (Example 13); format: in vivo, mouse; conditions: vs BSA treated controls
PlatKO mice = assay: Outflow facility in protein treated PlatKO mouse eyes (Example 14); format: in vivo; conditions: intravitreal protein
Description: (§3) PlatKO and Mmp-9KO mice were also not given steroids prior to protein injections (FIG. 10c). Within each cohort, animals were divided into two groups:
as §1
as §2, with “BSS. Steady state was initially achieved after 10 minutes.” for “BSS.”

Mmp-2, Mmp-9, Mmp-13 [3] = assay: Mmp expression in protein treated PlatKO eyes (Example 14); format: in vivo, mouse; conditions: vs BSA treated eyes
Description: Tissue collection and confirmation of transgene expression: After outflow facility determination in adenovirus treated mice, mCherry expression in the TM was determined in all AdPLAT and AdPLATNE injected eyes. The eyes were dissected on ice to isolate a rim of tissue containing the TM by removing most of the iris and ciliary body. […] After observation, dissected rims were immediately immersed in RNA stabilizing agent (RNAlater, Invitrogen by ThermoFisher Scientific, Waltham, Mass., USA) and frozen. […]
RNA isolation and quantitative real time PCR: Tissue collected was pooled (four eyes) and homogenized in TRIzol reagent (Life Technologies, Carlsbad, Calif., USA). […] RNA concentration was determined with a Nanodrop ND-1000 Spectrophotometer (ThermoFisher Scientific, Waltham, Mass., USA). cDNA was synthesized by using High-Capacity cDNA Reverse Transcription Kit (Applied Biosystems, Waltham, Mass., USA) according to manufacturer's protocol. Quantitative real-time PCR (qRT-PCR) was performed by using Green-2-Go qPCR Mastermix-ROX (BioBasic, Amherst, N.Y., USA) on a QuantStudio 6 Flex thermal cycler (Applied Biosystems, Carlsbad, Calif., USA).
mRNA expression of sheep PLAT and mouse Mmp-2, Mmp-9, and Mmp-13 in angle ring tissues was determined. […] The relative fold change was calculated by using the ΔΔCt method. […]

[4] = test system: Mmp-2, Mmp-9, Mmp-13, Plat; assay: Mmp and Plat expression in protein treated C57BL/6J eyes not exposed to steroids (Example 15); format: in vivo, mouse; conditions: C57BL/6J not exposed to steroids
Mmp-9KO mice = assay: Outflow facility in protein treated Mmp-9KO mouse eyes (Example 16); format: in vivo; conditions: intravitreal protein, p>0.05
Description: as §3, §1
as §2, with “BSS. Steady state was initially achieved after 10 minutes.” for “BSS.”

Tg-MYOCY437H mice = assay: Outflow facility in Tg-MYOCY437H mouse eyes (Example 19); format: in vivo
Description: To investigate whether corticosteroids affect outflow facility in Tg-MYOCY437H mice, animals received bilateral injections (20 μl) with either triamcinolone acetonide (TA) (40 mg/ml, Kenalog-40; Bristol-Myers Squibb, NY, USA) suspension or phosphate-buffered saline (PBS) (Gibco, ThermoFisher Scientific, Waltham, Mass., USA) subconjunctivally using a 100 μL Hamilton syringe with a 26-gauge needle (Precision Glide, Becton Dickinson & CO, Franklin Lakes, N.J., USA). They were euthanized one week later for outflow facility measurement.
To investigate whether tPA can affect outflow facility in Tg-MYOCY437H mice, and determine whether tPA enzymatic action is necessary for such an effect, intravitreal injections were performed using a 10 μL Hamilton syringe with 36-gauge stainless steel needles (WPI Inc, Sarasota, Fla., USA). […] Animals were sacrificed either two or five days after intravitreal injections for outflow facility measurement. […]
Mouse eyes were enucleated immediately after euthanasia. Outflow facility was determined using a microfluidic flow sensor (0.07-1.5 uL/min, MFS1; Elveflow, Paris, France) and constant pressure method, as previously described (Hu, Barron et al. 2019). […] Any eyes that developed visible leaks or that had pressure-flow correlations with […] were excluded from analysis but were used for RNA quantification.

Mmp-2, Mmp-9, Mmp-13 [5] = assay: Mmp expression in Tg-MYOCY437H angle ring tissue (Example 19); format: in vivo, mouse; conditions: 2 days, vs BSA treated eyes
Description: Eyes were flash frozen in liquid nitrogen after outflow facility determination and subsequently dissected on ice to obtain the angle ring tissues containing the TM, as previously described (Kumar, Shah et al. 2013). Dissected TM tissues were immersed in RNAlater solution (Invitrogen, Waltham, Mass., USA) and then snap-frozen and stored at −80° C. until RNA extraction. Tissue collected was pooled (four eyes) and homogenized in TRIzol reagent for RNA isolation, per manufacturer's instructions (Life Technologies, Carlsbad, Calif., USA). RNA concentration was determined with a Nanodrop ND-1000 Spectrophotometer (Thermo Scientific, Wilmington, Del., USA). cDNA was synthesized by using High-Capacity cDNA Reverse Transcription Kit (Applied Biosystems, Waltham, Mass., USA) according to manufacturer's protocol. Quantitative real-time PCR (qRT-PCR) was performed by using Green-2-Go qPCR Mastermix-ROX (Bio Basic, Amherst, N.Y., USA) on a QuantStudio 6 Flex thermal cycler (Applied Biosystems, Carlsbad, Calif., USA). mRNA expression of Plat, Plau, Pai-1, Mmp-2, Mmp-9, and Mmp-13 in angle ring tissues was determined. Primers were designed by using Primer-BLAST (https://www.ncbi.nlm.nih.gov/tools/primer-blast/index.cgi?LINK_LOC=BlastHome; in the public domain); primer sequences are listed in Table 2. Primer specificity was confirmed by agarose gel electrophoresis and multiple-sized amplification products were absent on inspection of melting curves. Target mRNA expression values were normalized to the expression levels of Rps11 (ribosomal protein S11). The relative fold change was calculated by using the ΔΔCt method (Hu, Wang et al. 2015). Outliers identified via the Thompson Tau test were removed from analysis.

B1: RAP: inhibitor of LRP1 (protein, UniProt P30533 35-357, looked up)
Alpha-2-macroglobulin …: YSREKNQPKPSPKRESGEEFRMEKLNQLWEKAQRLHLPPVRLAELHADLKIQERDELAWKKLKLDGLDEDGEKEARLIRNLNVILAKYGLDGKKDARQVTSNSLSGTQEDGLDDPRLEKLWHKAKTSGKFSGEELDKLWREFLHHKEKVHEYNVLLETLSRTEEIHENVISPSDLSDIKGSVLHSRHTELKEKLRSINQGLDRLRRVSHQGYSTEAEFEEPRVIDLWDLAQSANLTDKELEAFREELKHFEAKIEKHNHYQKQLEIAHEKLRHAESVGDGERVSRSREKHALLEGRTKELGYTVKKHLQDLSGRISRARHNEL
Question: With B1 as the molecule, how does the MMP-9 expression (MMP-2, MMP-9, MMP-13 [1]; added to PA+NE-tPA, vs PA+NE-tPA treated cells) read?
Answer: significantly lower

B2: NE-tPA: non-enzymatically active tPA, serine-478 replaced by alanine (Innovative Research) (protein)
chain: SYQVICRDEKTQMIYQQHQSWLRPVLRSNRVEYCWCNSGRAQCHSVPVKSCSEPRCFNGGTCQQALYFSDFVCQCPEGFAGKCCEIDTRATCYEDQGISYRGTWSTAESGAECTNWNSSALAQKPYSGRRPDAIRLGLGNHNYCRNPDRDSKPWCYVFKAGKYSSEFCSTPACSEGNSDCYFGNGSAYRGTHSLTESGASCLPWNSMILIGKVYTAQNPSAQALGLGKHNYCRNPDGDAKPWCHVLKNRRLTWEYCDVPSCSTCGLRQYSQPQFRIKGGLFADIASHPWQAAIFAKHRRSPGERFLCGGILISSCWILSAAHCFQERFPPHHLTVILGRTYRVVPGEEEQKFEVEKYIVHKEFDDDTYDNDIALLQLKSDSSRCAQESSVVRTVCLPPADLQLPDWTECELSGYGKHEALSPFYSERLKEAHVRLYPSSRCTAQHLLNRTVTDNMLCAGDTRSGGPQANLHDACQGDSGGPLVCLNDGRMTLVGIISWGLGCGQKDVPGVYTKVTNYLDWIRDNMRP
Question: What does the source list for B2?
Answer: outflow facility, mean±standard deviation (C57BL/6J mice): 114±40.3×10^−5 μl/min/mmHg; Mmp-2, Mmp-9 and Mmp-13 expression (Mmp-2, Mmp-9, Mmp-13 [2]): significant upregulation; increase in outflow facility compared to BSA treated eyes (PlatKO mice): 51%; outflow facility, mean±standard deviation (PlatKO mice; no steroid, two days): 92±42×10^−5 μl/min/mmHg; Mmp-2 expression (Mmp-2, Mmp-9, Mmp-13 [3]): not significantly different; Mmp-9 expression (Mmp-2, Mmp-9, Mmp-13 [3]): significant upregulation; endogenous Plat expression [4]: did not cause significant changes; gene expression changes in Mmp-2, Mmp-9 and Mmp-13 ([4]; vs BSA): not significantly different; effect on outflow facility (Mmp-9KO mice): did not increase; MMP-2 expression (MMP-2, MMP-9, MMP-13 [1]; PA treated HTM cells, between treatments): not significantly different; expression (FIG. 17C, MMP-9) (MMP-2, MMP-9, MMP-13 [1]; PA treated HTM cells, vs PA+BSA): significant upregulation; improvement of outflow facility (Tg-MYOCY437H mice): ~37%; Mmp-2 expression (Mmp-2, Mmp-9, Mmp-13 [5]): no significant difference; Mmp-9 expression (Mmp-2, Mmp-9, Mmp-13 [5]): significantly higher; Mmp-13 expression (Mmp-2, Mmp-9, Mmp-13 [5]): significantly higher
